Measurements published in paper PMC3496724.
pKd: −log10 of the molar value.

How the values were obtained:
[1] = molecular target: HIV-1 Tat protein (wild type, biologically active) (HIV-1 (human T lymphotropic virus type IIIB-BH-10, subtype B)) (UniProt P04610); experiment: SPR; BIACORE 3000; Tat immobilised by amine coupling on a CM3 chip; Env (5–1,000 nM) flowed in PBS pH 7.4 with 0.2% Tween 20, 300 mM NaCl, 5 mg/mL dextran; blank reference surface subtracted; single-site model
[2] = molecular target: HIV-1 Tat protein (wild type, biologically active) (HIV-1 (human T lymphotropic virus type IIIB-BH-10, subtype B)) (UniProt P04610); experiment: ITC; VP-ITC; Tat (1.25 to 4.4 µM) in the cell, trimeric Env (12.5 to 47.0 µM in protein subunit) in the syringe; PBS pH 7.4

| Substance | pKd [1] | T1/2 (complex dissociation half life) [1] [min] | koff [1] [s⁻¹] | kon [1] [M⁻¹ s⁻¹] | pKd [2] | stoichiometry N (Tat per gp120 subunit) [2] |
| --- | --- | --- | --- | --- | --- | --- |
| monomeric ΔV2 Env (clade B, HIV-1 SF162) (natural protein) | 7.04 | 23 | 0.00049 | 5900 |  |  |
| trimeric wt Env (clade B, HIV-1 SF162) (natural protein) | 7.42 | 23 | 0.00049 | 14000 | 6.95 | 1 |
| trimeric ΔV2 Env (clade B, HIV-1 SF162) (natural protein) | 7.66 | 230 | 5e-05 | 2600 |  |  |
